This is an account of results in IntAct's records for PubMed 22070932.

The chains are these.
B1: DAZ-associated protein 2 (Homo sapiens), Q15038 (parent)
chain: MNSKGQYPTQPTYPVQPPGNPVYPQTLHLPQAPPYTDAPPAYSELYRPSFVHPGAATVPTMSAAFPGASLYLPMAQSVAVGPLGSTIPMAYYPVGPIYPPGSTVLVEGGYDAGARFGAGATAGNIPPPPPGCPPNAAQLAVMQGANVLVTQRKGNFFMGGSDGGYTIW
B2: DAZ-associated protein 2 (Homo sapiens), Q15038 (parent)
chain: B1 chain
partner: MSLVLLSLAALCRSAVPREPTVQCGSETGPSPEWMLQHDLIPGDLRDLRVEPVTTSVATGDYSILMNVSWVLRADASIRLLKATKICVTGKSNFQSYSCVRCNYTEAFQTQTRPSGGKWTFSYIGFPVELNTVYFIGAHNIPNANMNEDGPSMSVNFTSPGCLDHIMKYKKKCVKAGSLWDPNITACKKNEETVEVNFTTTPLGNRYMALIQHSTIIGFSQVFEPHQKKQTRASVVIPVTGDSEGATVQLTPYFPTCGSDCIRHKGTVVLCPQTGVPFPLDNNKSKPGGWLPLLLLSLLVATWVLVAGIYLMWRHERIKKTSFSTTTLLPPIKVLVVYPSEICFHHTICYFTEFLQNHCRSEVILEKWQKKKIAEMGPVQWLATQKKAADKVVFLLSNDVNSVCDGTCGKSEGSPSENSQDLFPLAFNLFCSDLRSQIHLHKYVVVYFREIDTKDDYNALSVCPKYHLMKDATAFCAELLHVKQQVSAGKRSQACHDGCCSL

One experiment covers variants of B1. The following applies: with smuf2_human SMURF2, Q9HAU4.
smuf2_human SMURF2, Q9HAU4, sequence (Q9HAU4 whole entry): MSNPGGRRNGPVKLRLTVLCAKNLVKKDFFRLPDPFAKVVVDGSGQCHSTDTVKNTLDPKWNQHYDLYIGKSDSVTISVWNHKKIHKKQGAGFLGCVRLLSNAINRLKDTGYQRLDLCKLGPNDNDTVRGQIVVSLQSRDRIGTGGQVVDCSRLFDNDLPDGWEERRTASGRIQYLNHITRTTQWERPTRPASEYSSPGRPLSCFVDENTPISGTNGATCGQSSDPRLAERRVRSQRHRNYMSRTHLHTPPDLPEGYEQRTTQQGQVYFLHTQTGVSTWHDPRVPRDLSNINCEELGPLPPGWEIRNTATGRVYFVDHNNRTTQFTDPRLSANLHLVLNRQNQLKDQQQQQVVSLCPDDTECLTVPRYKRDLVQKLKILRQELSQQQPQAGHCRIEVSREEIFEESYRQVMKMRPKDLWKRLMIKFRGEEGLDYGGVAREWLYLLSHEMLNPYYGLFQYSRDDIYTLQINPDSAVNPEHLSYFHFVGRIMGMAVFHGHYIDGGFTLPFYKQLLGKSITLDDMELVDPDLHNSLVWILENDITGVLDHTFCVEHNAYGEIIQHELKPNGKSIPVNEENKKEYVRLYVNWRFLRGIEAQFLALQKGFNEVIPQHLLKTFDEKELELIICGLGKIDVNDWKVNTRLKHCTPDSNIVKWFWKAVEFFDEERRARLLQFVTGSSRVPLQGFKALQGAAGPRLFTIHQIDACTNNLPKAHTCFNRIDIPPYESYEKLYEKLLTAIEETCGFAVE
On to MNSKGQYPTQPTYPVQPPGNPVYPQTLHLPQAPPYTDAPPAASELYRPSFVHPGAATVPTMSAAFPGASLYLPMAQSVAVGPLGSTIPMAYYPVGPIYPPGSTVLVEGGYDAGARFGAGATAGNIPPPPPGCPPNAAQLAVMQGANVLVTQRKGNFFMGGSDGGYTIW [Y42A], for which the “effect of a mutation on the interaction” value was “disrupting interaction strength”.

A further experiment covers variants of B2. To be noted: with IL17RB.
MNSKGQYPTQPTYPVQPPGNPVYPQTLHLPQAPPYTDAPPAASELYRPSFVHPGAATVPTMSAAFPGASLYLPMAQSVAVGPLGSTIPMAYYPVGPIYPPGSTVLVEGGYDAGARFGAGATAGNIPPPPPGCPPNAAQLAVMQGANVLVTQRKGNFFMGGSDGGATIW [Y42A;Y165A]: the “effect of a mutation on the interaction” value was “disrupting interaction strength”. Same read-out and setting: with MNSKGQYPTQPTYPVQPPGNPVYPQTLHLPQAPPYTDAPPAYSELYRPSFVHPGAATVPTMSAAFPGASLYLPMAQSVAVGPLGSTIPMAYYPVGPIYPPGSTVLVEGGYDAGARFGAGATAGNIPPPPPGCPPNAAQLAVMQGANVLVTQRKGNFFMGGSDGGATIW [Y165A] the entry was “decreasing interaction strength”; with MNSKGQYPTQPTYPVQPPGNPVYPQTLHLPQAPPYTDAPPAASELYRPSFVHPGAATVPTMSAAFPGASLYLPMAQSVAVGPLGSTIPMAYYPVGPIYPPGSTVLVEGGYDAGARFGAGATAGNIPPPPPGCPPNAAQLAVMQGANVLVTQRKGNFFMGGSDGGYTIW [Y42A], “decreasing interaction strength”.
